Measured values: the DeepSol protein solubility set

Test: soluble on expression in E. coli; label from the status in PepcDB or PDB records

| Sequence | soluble on expression in E. coli |
| --- | --- |
| VINARLGKKDEINVCKLKISAWDEEEAVCIMSISEERMFILKMLEEGKITSEEAARLLEAIDPDKGTADSGSGFKAQQRKTNFADEVSKVRDKLNEWKKEFKKNYNQKDFERAVDEFSSKVEKLGKNLAYTTIGVADKLVDFISSFVETNSFNVFGKYKATNRVFEVPDVNEDMELNIEAINGHILVKKHMENKVIIRTTVKSPADNADEILDFSREENKVTLKCNKIGNISVSHEIFLPSVKVKNISLVTKNGKVYVEDSISENFEAVTSNSNVDLMGVNGDKINVSNKNGRINFGYIIGKDINIDAVNSVIEIRQIKTTNINASTRNGRIFIENVHNHNDDPNINMNLKTSSADIKVNMNDMEKRGYKIKAQTTHAEINLLIPEMTYRNISKQMSSNFVEADSDGYDDYINKVNIVAETTNGNIEIVK | not soluble |
| VKNILLLDSEGKRVAVKYYSDDWPTNAAKLSFEKYVFSKTSKTNARTEAEITLLDSNIIVYKFAQDLHFFVTGGENENELILASVLQGFFDAVALLLRSNVEKMEALENLDLIFLCLDEMVDQGVVL | not soluble |
| VKTILFFILIFNSQYMSKRIGVAVVGLGSIGKTHVKALKDLEKETEFVKLVAVVDQIKAIAEKIGSEYGTPYYTTIDEVLRNSEVDVISIATPSYLHAPQAILAIEYGKHVIVEKPMATTLAGAREMVSRAERNEVKLGVIFQERYAPDIRRLKNDILKELGRIYLIESELKWYRDMKGYYKRDEIARSWRGMWNTEGGGVMTNQGIHTIDLMIWLNGEVEEVSGFVDNLTHDGIEVEDTAVAIMRYKNGALGTISQTVSMKPTTYQYRKIRVNGSNGFVEITDGSLSTVAIEGKIEESKSSVEYKKETIAQPGNLHKELLRDFLRALSEDNDFPINGKEGMKSLEVIKAVYLSSVNRQVVKLPLDVRIVV | soluble |
| VLQLAEQIDVVIFDLNGTLTTGVPVVKEYAVLNDADLSSEHFLSICNVLEGQSKHPFGKAIQSFTQGINKQKFNIANLDHSNHSGISAEINGIQYTIGSKTLMQEIGISTSSLENQMNLVAGDSLVFLARNKQLLGYLVITDPLRKDAKQTVDALIKMGKEVHLCTGADEKTAYRYAQALGIKKVHANCVATTINTEDRSKPVYIKSLQNQGLKVAMIGDAANDANALAASDFGIAVLSQDSDEITQQHASAIIQSGTILPIANAFAISKQTVNNINQNLLISLGYNLTTV | not soluble |
| VNAYDVLKRHHTVLKGLGRKVGEAPVNSEERHVLFDEMLIELDIHFRIEDDLYYPALSAAGKPITGTHAEHRQVVDQLATLLRTPQRAPGYEEEWNVFRTVLEAHADVEERDMIPAPTPVHITDAELEELGDKMAARIEQLRGSPLYTLRTKGKADLLKAI | not soluble |
| VPDKSPDLLFELLNDFFTQLLSAGESESMDNLIELDLTFSQVRMLFALVQHGEPLPINEVAERLRLSVAAAGRNVDQLVKLGLVVRREDERDRRVKRVSLSEAGHKVATQHIECKRDQLRRFAWRVPEIERTRLIEALQPILAGESLRELNQEILG | not soluble |
| VPKLVDHDERRRSITAAAWRLIAARGIEAANMRDIATEAGYTNGALSHYFAGKDEILRTSYEHISEATDRRIAEALGDATGLDALRILCREVMPINEEQLLEARIAASLWPRAMYDEQMAATNRRTMDNWREQMAIFLEQAREEGSVGDIDVTIVVEQLLNMMMGMQILGVLTPGETSSERQLEMLEQFVAAL | soluble |
| VQLQQSGTELMKPGRSLKISCKTTGYIFSNYWIEWVKQRPGHGLEWIGKILPGGGSNTYNDKFKGKATFTADTSSNIAYMQLSSLTSEDSAVYYCARGEDYYAYWYVLDYWGQGTTVTVSSGGGGSDIELTQSPLSLPVSLGDQASISCRSSQSLVHSNGNTSLHWYLKKPGQSPKLLIYKVSTRFSGVPDRFSGSGSGTDFTLKISRVEAEDLGVYFCSQSTHVPFTFGSGTKLELK | soluble |
| VQLVRLLEEKIKSLQIEIENLRKELNYYKAEMEKMLSPPLIEAVVLDVLPDGRVLVRSSSGPNLVVNIASHIDQKLIKPGISVALNQRGSTILEVLPQKEDPIVKTMEIIERPN | not soluble |
| VQVLRLGSVGPDVKLAQSLLNKIGYPVGAVDGIYGTRTRQAVIAFQRNNGLVADGIVGPATWSVFEQFLRGYAIYYVRPGDTLYNIAGRFYTSVNSIVTANPGINPNVINIGQRLVVPYGIDVVFTDIDYTYEIMERDIQGLKARYPFLETGVAGTSVLGRNLYYLRLGTGPRQVFYNAAHHAIEWITTVLLMKFAENFLKAYSTGSRIRGYNVREIWNQSSIYIVPMVNPDGVDLVLNGLSPTNPYYADLLRWNTTGRPFSQVWSANIRGVDLNRNYPASWEEAKAQEEALGIFGPGPTRYGGPYPLSEPESSAMVSFTRTHDFRLALAYHSQGRVIYWNYLNLAPPESLTIANAFARVSGYIVLDVPYEAAYAGYKDWFIQEYRRPGFTIEVGLGQNPLPISQFNTIYNDNEEILLLASLI | not soluble |
| VSGTRPAARRTNLTAAQNVVRSVDAEERIAWVSKALCRTTDPDELFVRGAAQRKAAVICRHCPVMQECAADALDNKVEFGVWGGMTERQRRALLKQHPEVVSWSDYLEKRKRRTGTAG | soluble |
| VSIKKSSGLNFDNTAIAINAGKGLEFDTNTSESPDINPIKTKIGSGIDYNENGAMITKLGAGLSFDNSGAITIGNKNDDKGSGYIPEAPRDGQAYVRKDGEWVLLSTFL | soluble |
| VSQLLPSDFNLRYPANSTSIVPISDLSITQIEADPNDSTIAVLTIQVIIRVNSFNNSLNFGIATYTQKIPGFLNQDSGRIALGFRDLALNANDLIIFNGIKGDTGVDAAIQSGKDNFTINSPIGFENIIFSIQDFDSTSTNASRGELGFVIKGEFNGQILLSSTINQKIVVSEFLAENLAILNAATEFGVILKPEFNLNSNRPTASQASKDNFSINFSQAPDPR | soluble |
| VSRAESNRTYSGQPVAERRVARRARFLDSALSVFAEKTYAHSSISDICAHAGLSRRQFYEEFGSREDILLALYDTIQDEARDAVLAANDRAPSRDPRTVAGTVMTAYIESVGTDERRARIIFVEVVGAGPRVEQYRLERRTQWAQLFETVTRTIDGGIVDPPERFEMVSIAFIGAVNDLAHHWSTASPRPSPSVLVDVLSTMLIALVTDQT | not soluble |
| VTPYEDLLRFVLETGTPKSDRTGTGTRSLFGQQMRYDLSAGFPLLTTKKVHFKSVAYELLWFLRGDSNIGWLHEHGVTIWDEWASDTGELGPIYGVQWRSWPAPSGEHIDQISAALDLLRTDPDSRRIIVSAWNVGEIERMALPPCHAFFQFYVADGRLSCQLYQRSADLFLGVPFNIASYALLTHMMAAQAGLSVGEFIWTGGDCHIYDNHVEQVRLQLSREPRPYPKLLLADRDSIFEYTYEDIVVKNYDPHPAIKAPVAV | not soluble |
| VVFVTVGTTSFDALVKAVVSQNVKDELQKRGFTHLLIQMGRGIFFPTKCDGADGSLVVDYFTFSSSIADYIRSASLVISHAGSGSIFETLKLGKPLIVVVNEDLMDNHQCELAEALEERKHLYYTRPHSLHQTLTKMELGSLVQYTPGDGTPVARIIDRFLGFPDD | not soluble |
| VYSDPLREAIAEAEQLVAAAPHIETEADLLEGLQYLAGCIAGCMHLAFDYERDHPFLQSGTGPFTKMGLDNPDTLYFGTRLQANRDYVVSGRRGTTTDLSFQLLGGEYTDYNVPASQAAFDDRELDIAADGSFEWRLRPSAPGQLVIREVYGDWSQQRGTLAIARLDTVGTAPPPLTRELMEKRYATAGSQLVNRVKTWLQFPQWFYLNIPVNTMVAPRLTPGGLATQYSSAGHFELRPGQALVITVPVSDAPYLGFQLGSMWYISLDYINHQTSLNASQAQADPDGKVRIVVAEQNPGVTNWVETLGHRRGFLQFRWQRVSRELTEADGPTVELVDFDAIPAALPHYQHNKISEDDWRARIALRQRQIATRMLG | not soluble |
| WCYEIQTEDPRSSCLGPEKWPGACKENQQSPINIVTARTKVNPRLTPFILVGYDQKQQWPIKNNQHTVEMTLGGGACIIGGDLPARYEAVQLHLHWSNGNDNGSEHSIDGRHFAMEMHIVHKKLTSSKEDSKDKFAVLAFMIEVGDKVNKGFQPLVEALPSISKPHSTSTVRESSLQDMLPPSTKMYTYFRYNGSLTTPNCDETVIWTVYKQPIKIHKNQFLEFSKNLYYDEDQKLNMKDNVRPLQPLGKRQVFKSHA | soluble |
| WLSRSERYIPMMREVLRKEGLPEDLVYLAMIESGFTPHAVSVASAVGPWQFISGTGKRYDLRIDQWIDERRDPLKSTVAAAMYLKELYSLFNQDWYLAAAGYNAGENKILRAIDKYNTRDFWEISKGSYLKRETKDYVPKLLAAAIIAKEPARYGFADVAYLPPIEFD | not soluble |
| WQYMFYSALSIFVSGKVTDAVYTKQKKMQVMIVTKNPDRVVDEIQKKMRRGITIIHEAEGAYRHDRQTVLLTIVTRFELPSLEAAMKESDPNAFVSISDNVKILGRFYEEDYK | not soluble |
| WTVIGGYLIVAGKDATTNEMLIKRYVEKNDIVFHTLMEGAPFTIIRTEGSEEIPDENILFEVAKFAASHSRAWKLGIGSADVYWVRPDQISKTAESGEYLKK | not soluble |
| WWYEGYRPNAGWALTDKPTYRDQQMQDKLDALSLYDILEREIIPLYYDKEDKSYSEGWIRYIRRSMMYIAPHFTMKRMLDDYYDKFYGPLAQRHRSISASSFALASEIADWKQQTATHWDEMRVVRVAATGFGLCLQDNHTMQTLEIEIEKGNLSAELNVELVVISDDNQGGVSLVQTIPLNLSEQSADNRWQKYNVNCSLKNPGLHRVAIRITPHSDLLPHKMDFAYVRWAAIS | not soluble |
| YDYSNPATLFTLSDIGVSAHRYHNRLDIFTQSLENGAAQQGIEVSLLNEKGQTLTQASSDAQGHVQLENDKNAALLLARKNGQTTLLDLKLPALDLAEFNIAGAPGYSKQFFMFGPRDLYRPGETVILNGLLRDADGKALPDQPIKLDVIKPDGQVLRSVVSQPENGLYHFTWPLDSNAATGMWHIRANTGDNQYRMWDFHVEDFMPERMALNLTGEKTPLTPKDEVKFSVVGYYLYGAPANGNTLQGQLFLRPLREAVSALPGFEFGDIAA | not soluble |
| YTVEPVQDGERSVTLRRAGGTPLVAAMYHLPAAGSPDFVGLDLAATILADTPSGRLYHALVPTKLASGVFGFTMDQLDPGLAMFGAQLQPGMDQDKALQTLTATLESLSSKPFSQEELERARSKWLTAWQQTYADPEKVGVALSEAIASGDWRLFFLQRDRVRDAKLDDVQRAAVAYLVRSNRTEGRYIPTEKPQRAPLAQR | not soluble |
| YWFRSHKLERQLAEFQMQNELQYRYYAELEQKYRESRKIMHDMKNHLQAVEHLYQAKDGQEQGGAYVKDLYHMLNLLGEKYYSSNRMLNIICNDKLSLARHPAVAISVEIGDVDFSDLRDIDITTIFANLLDNALEAVEAFGEGAYLNLKIQEVHHFRVISIVNASRPGMKKEGHMGVGLENVRRTVEAYQGTMQCEIVGEEYRVSVMLPGKEDS | not soluble |
